T1: human HVEM (Herpes Virus entry mediator) expressed on HEK293T cells (human, UniProt Q92956 39-283)
T1 construct: whole, on cells; In the cell ELISA the HVEM-introduced HEK293T cells were fixed with 4% paraformaldehyde; in the reporter assay live HVEM-expressing HEK293T cells were used; also called TNFRSF14; HVEM/TNFRSF14
T1 sequence (looked up): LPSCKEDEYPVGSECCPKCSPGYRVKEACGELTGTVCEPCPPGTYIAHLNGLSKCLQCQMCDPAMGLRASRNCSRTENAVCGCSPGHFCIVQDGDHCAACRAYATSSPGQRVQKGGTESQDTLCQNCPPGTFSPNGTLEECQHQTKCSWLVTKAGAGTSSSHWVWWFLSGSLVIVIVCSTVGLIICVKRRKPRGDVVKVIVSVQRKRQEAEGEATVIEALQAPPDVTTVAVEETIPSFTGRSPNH


Target: T1, human HVEM (Herpes Virus entry …)
Test: cell ELISA on fixed HVEM-expressing HEK293T cells, His-tagged VHH detected with anti-His-tag mAb-HRP
Excerpt: The VHH antibodies prepared in the above item (1) were used to measure whether the VHH antibodies were detected in HVEM on the surface of the HVEM-expressing HEK293T cell membrane. Specifically, the HEK293T cells introduced with HVEM and the HEK293T cells not expressing HVEM as a negative control were each seeded at 1×10⁴ cells/well, fixed with 4% paraformaldehyde, and then reacted with the VHH antibodies added with 6×His tag. The horseradish peroxidase HRP-labeled anti-histidine tag antibody anti-His-tag mAb-HRP-DirecT (MBL) was reacted, and ELISA POD Substrate TMB Kit (Nacalai Tesque, Inc.) was used to measure an enzyme reaction of HRP with the substrate. The effect size data obtained for the antibody concentration was subjected to non-linear regression to a sigmoid curve based on the following formula: […]

Row | Binder | EC50 [nM]
1 | anti-human HVEM alpaca VHH antibody #1 (VHH, Tested as VHH with a 6xHis tag; also called VHH #1; not shown: 6xHis tag added for the assay) VHH: QVQLVESGGGLVQPGGSLRLSCAASGFTFSTHAMSWYRQAPGKERELVAHISSTGGSTNYADSVKGRFTISRDNAKNTVYLQMNSLKPEDTAVYRCNARDWYEYWGRGTQVTVSS | < 80
2 | anti-human HVEM alpaca VHH antibody #3 (VHH, Tested as VHH with a 6xHis tag; also called VHH #3; VHH(I); not shown: 6xHis tag added for the assay) VHH: QVQLVESGGGSVQPGGSLRLSCAASGSIGSIHRWDWYRLCPGKQREWVATLNSEGGPTYADSVEGRFTISRDNAKNMVYLQMNSLKPEDTAVYRCSARTVPFEYWGRGTQVTVSS | < 80
3 | anti-human HVEM alpaca VHH antibody #5 (VHH, Tested as VHH with a 6xHis tag; also called VHH #5; not shown: 6xHis tag added for the assay) VHH: QVQLVESGGGLVQPGGSLRLSCAASGFTFSSSHMTWVRQAPGKGLEWVSLINSSGRTAYVDSVAGRFTISRDNAKNTLYLQMTNLKPEDTAVYYCSKGGWDGLPSSSIRGQGTQVTVSS | < 80
4 | anti-human HVEM alpaca VHH antibody #2 (VHH, Tested as VHH with a 6xHis tag; also called VHH #2; VHH(II); not shown: 6xHis tag added for the assay) VHH: QVQLVESGGGLVQPGGSLRLSCVASGRLFDTYTMAWYRLPPGKQRELVADISRTGFTNYADSVKGRFTISRDNAKNTVYLQMNSLKPDDTAHYRCKVREPATMYEYWGQGTQVTVSS | < 80
5 | anti-human HVEM alpaca VHH antibody #4 (VHH, Tested as VHH with a 6xHis tag; also called VHH #4; not shown: 6xHis tag added for the assay) VHH: QVQLVESGGGLVQPGGSLRLSCAAAESMLSPYSMGWYRLPPGKQRELVASLGSGGRTTYADSVKGRFTISRDNAKNTAYLQMNSLKPEDTAVYRCNIRELLGRRYEYWSQGTQVTVSS | < 80
